Experimental data as given in article PMC6588440 (Free radical biology & medicine, 2019).

B1: Peroxiredoxin 2 (Prx2) (natural protein, UniProt P32119 1-198, looked up)
chain: MASGNARIGKPAPDFKATAVVDGAFKEVKLSDYKGKYVVLFFYPLDFTFVCPTEIIAFSNRAEDFRKLGCEVLGVSVDSQFTHLAWINTPRKEGGLGPLNIPLLADVTRRLSEDYGVLKTDEGIAYRGLFIIDGKGVLRQITVNDLPVGRSVDEALRLVQAFQYTDEHGEVCPAGWKPGSDTIKPNVDDSKEYFSKHN
modifications: inter-subunit disulfide (oxidized dimer); reduced thiols alkylated with NEM before lysis
B2: Peroxiredoxin 3 (Prx3) (natural protein, UniProt P30048 62-256, looked up)
chain: APAVTQHAPYFKGTAVVNGEFKDLSLDDFKGKYLVLFFYPLDFTFVCPTEIVAFSDKANEFHDVNCEVVAVSVDSHFSHLAWINTPRKNGGLGHMNIALLSDLTKQISRDYGVLLEGSGLALRGLFIIDPNGVIKHLSVNDLPVGRSVEETLRLVKAFQYVETHGEVCPANWTPDSPTIKPSPAASKEYFQKVNQ
modifications: inter-subunit disulfide (oxidized dimer); reduced thiols alkylated with NEM before lysis
B3: Peroxiredoxin 1 (Prx1) (natural protein, UniProt Q06830 1-199, looked up)
chain: MSSGNAKIGHPAPNFKATAVMPDGQFKDISLSDYKGKYVVFFFYPLDFTFVCPTEIIAFSDRAEEFKKLNCQVIGASVDSHFCHLAWVNTPKKQGGLGPMNIPLVSDPKRTIAQDYGVLKADEGISFRGLFIIDDKGILRQITVNDLPVGRSVDETLRLVQAFQFTDKHGEVCPAGWKPGSDTIKPDVQKSKEYFSKQK
modifications: inter-subunit disulfide (oxidized dimer); reduced thiols alkylated with NEM before lysis

Target: the molecule itself
Assay: non-reducing SDS-PAGE immunoblot

Protein | stoichiometry N
B1 | 2
B2 | 2
B3 | 2
